The text below walks through data of US20040214349A1 (MURDOCH CHILDRENS RESEARCH INSTITUTE ROYAL CHILDREN S …, published 2004).

This series deals with the molecule itself. Description: non-reducing SDS-PAGE of immunoprecipitated His-WARP.

B1: His-tagged full-length mouse WARP expressed in 293-EBNA cells (other)
chain: RSSHHHHHHIERGSTASDPQGDLLFLLDSSASVSHYEFSRVREFVGQLVATMSFGPGALRASLVHVGSQPHTEFTFDQYSSGQAIRDAIRVAPQRMGDTNTGLALAYAKEQLFAEEAGARPGVPKVLVWVTDGGSSDPVGPPMQELKDLGVTIFIVSTGRGNLLELLAAASAPAEKHLHFVDVDDLPIIARELRGSITDAMQPQQLHASEVLSSGFRLSWPPLLTADSGYYVLELVPSGKLATTRRQQLPGNATSWTWTDLDPDTDYEVSLLPESNVHLLRPQHVRVRTLQEEAGPERIVISHARPRSLRVSWAPALGPDSALGYHVQLGPLQGGSLERVEVPAGQNSTTVQGLTPCTTYLVTVTAAFRSGRQRALSAKACTASGARTRAPQSMRPEAGPREP
modifications: N-linked oligosaccharide (one or more; candidate sites Asn264 and Asn359)
notes: also called His-WARP; WARP-His
As to B1, the binding result was “binds”.
